The results in this text go back to US20220267421A1 (INVOX PHARMA, published 2022).

Experiment [1] has as its target T1, human MSLN-His-Avi (human, UniProt Q13421 296-598, single biotin (BirA) in the biotinylated form).
T1 construct: Monomeric, made in HEK293-6E; Used both immobilised and in solution; also called hMSLN-His-Avi; biotinylated hMSLN-His-Avi
The experiment in a line: ratio of the two SPR KD. As for the experimental part: (§1) Human MSLN-His-Avi was immobilised on flow cell 2 on a CM5 Series S BIAcore sensor chip (GE Healthcare, BR100530) using an amine coupling kit (GE Healthcare, BR10050) to approximately 200 response units (RU). Flow cell 1 was left blank for subtraction. HEK293-6E supernatants or purified proteins were adjusted with HBS-EP+(GE Healthcare) to approximately 50 nM anti-MSLN mAb per sample. Samples were injected over flow cell 1 and 2 for 2.5 min at 30 μl/min and then allowed to dissociate in HBS-EP buffer for 2.5 min. Regeneration was achieved by injecting 10 mM glycine pH 1.5 (GE Healthcare, BR100354) for 30 seconds at a rate of 30 μl/min. Subtracted data (flow cell 2−flow cell 1) were analysed using BIAevaluation 3.2 Software (GE Healthcare).
(§2) Binding of the selected anti-MSLN clones in mAb² format, to recombinant human and cyno MSLN-His-Avi antigen was measured by SPR using a Biacore T200 processing unit (GE Healthcare). As previously described, it was desirable to bind more strongly to immobilised antigen than to soluble antigen. To assess the binding properties of the clones, binding kinetics to immobilised MSLN antigen were determined as described in section 2.1.2 and compared to the kinetics obtained when MSLN antigens in solution bound to captured clones.
(§3) For the capture experiments, clones in mAb² format were captured using a BIAcore sensor series S chip Protein G (GE Healthcare, 29179315). mAb² diluted in HBS-EP buffer (GE Healthcare, BR100188) containing 900 mM […] at 1 μg/ml, were injected individually on flow cell 2, 3 and 4 at 30 μl/min to achieve a response of approximately 100 RU. G1-AA/HeID1.3 was captured on flow cell 1. The recombinant human and cyno MSLN-His-Avi (section 1.1), diluted in HBS-EP buffer containing 900 mM […], were injected on flow cell 1, 2, 3 or 4 as appropriate at a concentration range of 1000 nM to 0.051 nM with 3-fold dilutions for 5 minutes at 70 μl/min and then allowed to dissociate in buffer for 5 minutes. Regeneration was achieved by injecting 10 mM glycine pH1.5 (GE Healthcare, BR100354) and surfactant P20 (GE Healthcare, BR-1000-54) for 20 seconds at a rate of 30 μl/min.

In experiment [2] the target is T2, cell surface human mesothelin (MSLN) (human, UniProt Q13421 296-598).
T2 construct: whole, on cells; also called cell surface MSLN
T2 sequence (Q13421 other isoform, or with tags, fused parts or gaps limits assumed): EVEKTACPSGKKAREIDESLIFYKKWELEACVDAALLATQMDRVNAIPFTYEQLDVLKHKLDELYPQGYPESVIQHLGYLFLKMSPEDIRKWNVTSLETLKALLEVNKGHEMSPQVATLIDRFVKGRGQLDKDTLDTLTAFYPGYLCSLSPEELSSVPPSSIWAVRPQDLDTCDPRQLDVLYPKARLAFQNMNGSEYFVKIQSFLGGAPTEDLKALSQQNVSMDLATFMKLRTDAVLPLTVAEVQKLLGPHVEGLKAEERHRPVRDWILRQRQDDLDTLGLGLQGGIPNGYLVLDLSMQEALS
The experiment in a line: flow cytometry, NCI-H226 cells. As for the experimental part: (§4) Cells were centrifuged at 1200 rpm for 3 min and resuspended in ice cold FACS buffer made up of DPBS (Life Technologies, 14190169) and 1% BSA (Sigma-Aldrich, A7906) at 2×10⁶ cells/ml and 50 μl per well was seeded in a 96-well V-bottom plate (Costar, 3894). All mAbs tested were diluted in FACS buffer in 120 μl at a concentration range of 0.01-200 nM (4-fold dilutions). The NCI-H226 cells were then centrifuged, supernatant removed and cells resuspended in 100 μl of each mAb dilution and incubated at 4° C. for 45 min. Cells were washed twice by centrifugation with 150 μl FACS buffer, resuspended in 100 μl containing goat anti-human IgG (γ-chain specific) F(ab′)2 fragment-R-Phycoerythrin antibody (Sigma, P8047) diluted 1:1000 in FACS buffer and incubated at 4° C. for 45 min. The cells were washed once with 150 μl FACS buffer and then with 150 μl DPBS, resuspended in 150 μl DPBS containing DAPI (Biotium, 40043) at 1:10.000 and read on the BDCantoll or iQue (Intellicyt). Data was analysed using FlowJo v10 to determine the signal geometric mean for PE for live cells in each well.
(§5) Cell binding assays using OVCAR-3 cells were performed similarly to the assays described in section 2.4. The effect of the presence of soluble MSLN was tested by pre-incubating the antibodies in the presence or absence of soluble MSLN before mixing with cells and determining if the pre-incubation affected binding to MSLN on the cell surface. […] 60 μl from each well was then added to either FACS buffer alone or to FACS buffer containing 60 μl of 40 nM recombinant hMSLN (R&D systems, 3265-MS-050) (to give a final concentration of 20 nM hMSLN) and pre-incubated at room temperature for 1 hour before 100 μl was added to the cells. Bound antibody was detected using goat anti-human anti-Fcγ Alexa-Fluor 488 (Jackson Immunoresearch, 109-546-098).
(§6) The method used was exactly as described in section 3.1.4.
(In general: A flow cytometer gives signals particle by particle.)

The target in experiment [3] is T1, human MSLN-His-Avi. Description: SPR (Biacore), MSLN immobilised, mAb^2 injected. On the procedure: as §1, §2
(Surface plasmon resonance follows binding to a sensor surface in real time, without labels.)

Experiment [4] has as its target T2, cell surface human mesothelin (MSLN). The experiment in a line: flow cytometry, NCI-H226 cells + 20 nM soluble MSLN. As for the experimental part: as §4, §5, §6
Experiment [5] has as its target T1, human MSLN-His-Avi. Description: SPR (Biacore), mAb^2 captured on Protein G, MSLN in solution injected. On the procedure:
as §2
as §3, with “μl/min. Subtracted data (flow cell 2−flow cell 1, flow cell 3−flow cell 1, or flow cell 4−flow cell 1) were analysed using BIAevaluation 3.2 Software (GE Healthcare) to identify binding using the model 1:1 binding, local Rmax and with refractive index (RI) constant 0.” for “μl/min.”

The next experiment concerns the target T3, cynomolgus MSLN-His-Avi (cynomolgus, single biotin (BirA) in the biotinylated form).
T3 construct: Monomeric, made in HEK293-6E; also called cMSLN-His-Avi; cyno MSLN-His-Avi
T3 chain: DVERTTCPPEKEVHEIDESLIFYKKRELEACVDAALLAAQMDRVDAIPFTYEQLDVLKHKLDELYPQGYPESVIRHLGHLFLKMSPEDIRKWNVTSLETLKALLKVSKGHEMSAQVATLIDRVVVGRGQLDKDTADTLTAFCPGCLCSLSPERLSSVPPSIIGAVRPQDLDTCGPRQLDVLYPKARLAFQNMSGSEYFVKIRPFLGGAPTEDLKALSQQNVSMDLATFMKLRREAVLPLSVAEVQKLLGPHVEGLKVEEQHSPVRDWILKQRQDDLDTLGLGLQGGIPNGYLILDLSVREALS
Described as above. As for the experimental part:
as §2
as §3, with “μl/min. Subtracted data (flow cell 2−flow cell 1, flow cell 3−flow cell 1, or flow cell 4−flow cell 1) were analysed using BIAevaluation 3.2 Software (GE Healthcare) to identify binding using the model 1:1 binding, local Rmax and with refractive index (RI) constant 0.” for “μl/min.”

T1 sequence (Q13421 other isoform, or with tags, fused parts or gaps): as the sequence (Q13421 other isoform, or with tags, fused parts or gaps limits assumed) above

B1: FS22-053-008-AA/FS28-256 (bispecific antibody, human IgG1, kappa, L234A L235A, V domains shown)
VH: EVQLLESGGGLVQPGGSLRLSCAASGFTFTNTYMSWVRQAPGKGLEWVSNISPTYSTTNYADSVKGRFTISRDNSKNTLYLQMNSLRAEDTAVYYCARYNSYQGGLDYWGQGTLVTVSS
VL: EIVLTQSPGTLSLSPGERATLSCRASQSVSSSYLAWYQQKPGQAPRLLIYGASSRATGIPDRFSGSGSGTDFTLTISRLEPEDFAVYYCQQSYYYPITFGQGTKVEIKR
Consider B1, for which the “Ratio of KD in solution/immobilised for human MSLN-His-Avi” value (“Ratio of KD in solution/immobilised” for short) in the experiment with human MSLN-His-Avi [1] came out at 37.5. Also, the 50% effective concentration (EC50) (commonly the concentration needed to bring the measured effect to its halfway point) in experiment [2] worked out at 15.8 nM; in experiment [4], 39.4 nM. Further, the “Emax (MFI)” value in experiment [2] was determined as 276000 MFI; in experiment [4], 351000 MFI. Further, the Kd (as a rule, the concentration at which binding is half-saturated) was 23.7 nM with human MSLN-His-Avi [3], 889 nM with human MSLN-His-Avi [5] and 738 nM with cynomolgus MSLN-His-Avi.

B2: FS22-053-008-AA/FS28-256-012 mAb^2 (bispecific antibody, human IgG1, kappa, L234A L235A, V domains shown)
VH: EVQLLESGGGLVQPGGSLRLSCAASGFTFTHTYMSWVRQAPGKGLEWVSNISPTYSTTNYADSVKGRFTISRDNNKNTLYLQMNSLRAEDTAVYYCARYNAYHAALDYWGQGTLVTVSS
VL: EIVLTQSPGTLSLSPGERATLSCRASQSVSSSYLAWYQQKPGQAPRLLIYGASSRATGIPDRFSGSGSGTDFTLTISRLEPEDFAVYYCQQSYYYPITFGQGTKVEIKR
With B2, the “Ratio of KD in solution/immobilised” value with human MSLN-His-Avi [1] was determined as 209. The EC50 in experiment [2] turned out to be 8.48 nM; in experiment [4], 4.83 nM. For the same molecule, the “Emax (MFI)” value was 969000 MFI in experiment [2] and 790000 MFI in experiment [4]. For the same molecule, the Kd with human MSLN-His-Avi [3] stood at 4.1 nM; in the experiment with human MSLN-His-Avi [5] it was 861 nM; in the experiment with cynomolgus MSLN-His-Avi, 717 nM.

B3: FS22-053-008-AA/FS28-256-023 mAb^2 (bispecific antibody, human IgG1, kappa, L234A L235A, V domains shown)
VH: EVQLLESGGGLVQPGGSLRLSCAASGFTFTQTYMSWVRQAPGKGLEWVSNISPTYSTTNYADSVKGRFTISRDNSKNTLYLQMNSLRAEDTAVYYCARYNAYQIGLDYWGQGTLVTVSS
VL: EIVLTQSPGTLSLSPGERATLSCRASQSVSSSYLAWYQQKPGQAPRLLIYGASSRATGIPDRFSGSGSGTDFTLTISRLEPEDFAVYYCQQHNQYPNTFGQGTKVEIKR
Regarding B3, the “Ratio of KD in solution/immobilised” value in the experiment with human MSLN-His-Avi [1] was 20.8. The EC50 in experiment [2] was 3.29 nM; in experiment [4] it was 3.9 nM. Further, the “Emax (MFI)” value in experiment [2] is 856000 MFI; in experiment [4], 716000 MFI. In addition, the results for the Kd with human MSLN-His-Avi [3], with human MSLN-His-Avi [5] and in the experiment with cynomolgus MSLN-His-Avi were 3.3 nM, 68.6 nM and 32.6 nM, respectively.

B4: FS22-053-008-AA/FS28-256-026 mAb^2 (bispecific antibody, human IgG1, kappa, L234A L235A, V domains shown)
VH: EVQLLESGGGLVQPGGSLRLSCAASGFTFTQTYMSWVRQAPGKGLEWVSNISPTYSTTNYADSVKGRFTISRDNSKNTLYLQMNSLRAEDTAVYYCARYNAYQIGLDYWGQGTLVTVSS
VL: EIVLTQSPGTLSLSPGERATLSCRASQSVSSSYLAWYQQKPGQAPRLLIYGASSRATGIPDRFSGSGSGTDFTLTISRLEPEDFAVYYCQQALGYPHTFGQGTKVEIKR
Regarding B4, in the experiment with human MSLN-His-Avi [1], the “Ratio of KD in solution/immobilised” value was found to be 19.5. The EC50 was found to be 2.43 nM in experiment [2] and 4.59 nM in experiment [4]. In addition, the “Emax (MFI)” value in experiment [2] worked out at 741000 MFI; in experiment [4], 715000 MFI. Also, the results for the Kd with human MSLN-His-Avi [3], with human MSLN-His-Avi [5] and with cynomolgus MSLN-His-Avi were 3.2 nM, 62.3 nM and 33.2 nM, respectively.

B5: FS22-053-008-AA/FS28-256-024 mAb^2 (bispecific antibody, human IgG1, kappa, L234A L235A, V domains shown)
VH: EVQLLESGGGLVQPGGSLRLSCAASGFTFTHTYMSWVRQAPGKGLEWVSNISPTYSTTNYADSVKGRFTISRDNNKNTLYLQMNSLRAEDTAVYYCARYNAYHAALDYWGQGTLVTVSS
VL: EIVLTQSPGTLSLSPGERATLSCRASQSVSSSYLAWYQQKPGQAPRLLIYGASSRATGIPDRFSGSGSGTDFTLTISRLEPEDFAVYYCQQALGYPHTFGQGTKVEIKR
As to B5, the “Ratio of KD in solution/immobilised” value in the experiment with human MSLN-His-Avi [1] is 14.3. The EC50 in experiment [2] amounted to 3.88 nM; in experiment [4] it was 3.91 nM. In addition, the “Emax (MFI)” value in experiment [2] was determined as 813000 MFI; in experiment [4] it was 669000 MFI. In addition, the Kd with human MSLN-His-Avi [3] was 6.7 nM; with human MSLN-His-Avi [5], 95.4 nM; in the experiment with cynomolgus MSLN-His-Avi, 56.7 nM.

B6: FS22-053-008-AA/FS28-256-021 mAb^2 (bispecific antibody, human IgG1, kappa, L234A L235A, V domains shown)
VH: EVQLLESGGGLVQPGGSLRLSCAASGFTFTHTYMSWVRQAPGKGLEWVSNISPTYSTTNYADSVKGRFTISRDNNKNTLYLQMNSLRAEDTAVYYCARYNAYHAALDYWGQGTLVTVSS
VL: EIVLTQSPGTLSLSPGERATLSCRASQSVSSSYLAWYQQKPGQAPRLLIYGASSRATGIPDRFSGSGSGTDFTLTISRLEPEDFAVYYCQQHNQYPNTFGQGTKVEIKR
As to B6, the “Ratio of KD in solution/immobilised” value with human MSLN-His-Avi [1] amounted to 7. Further, the EC50 in experiment [2] was 3.29 nM; in experiment [4], 7.65 nM. Besides, the “Emax (MFI)” value was 919000 MFI in experiment [2] and 839000 MFI in experiment [4]. Further, the results for the Kd in the experiment with human MSLN-His-Avi [3], with human MSLN-His-Avi [5] and with cynomolgus MSLN-His-Avi were 3.3 nM, 23.2 nM and 16.2 nM, respectively.
